We go through three molecules from patent US20250368742A1.

By EC50 is commonly meant the midpoint of the concentration-response curve. Usually EC50 (read off the curve) stands for the midpoint of the concentration-response curve.

Where two headings read alike, the source gives them in different places.

In assay [1] the target is human MICB005 on cells (human). Put plainly: flow cytometry on CHO-MICB005 cells; column Control_2w (control of the 2-week experiment). (In flow cytometry, cells or beads pass a laser one at a time.)
Assay [2] addresses human MICB005 on cells (human). The assay is described as follows: flow cytometry on CHO-MICB005 cells; column Control_1w (control of the 1-week experiment).
Assay [3] deals with human MICB005 on cells (human). Put plainly: flow cytometry on CHO-MICB005 cells; column HSA_1w (1 week in human serum at 37 C).
Assay [4] has as its target human MICB005 on cells (human). The assay is described as follows: flow cytometry on CHO-MICB005 cells; column HSA_2w (2 weeks in human serum at 37 C).
Assay [5] has as its target human MICA004 on cells (human). Put plainly: flow cytometry, CHO cells, panel headed MICA004.
The target of assay [6] is human MICA008 on cells (human). Put plainly: flow cytometry, HeLa cells (MICA008).
Assay [7] addresses shed MICA004 polypeptide (human) (UniProt Q29983). The assay is described as follows: capture ELISA (anti-hFc / antibody / shed antigen / biotin-6D4).
For assay [8], the target named is shed MICA002 polypeptide (human) (UniProt Q29983). The assay is described as above.
Assay [9] has as its target shed MICB005 polypeptide (human) (UniProt Q29980). The description is as above.
The target in assay [10] is shed MICA008 polypeptide (human) (UniProt Q29983). The description is as above.
Assay [11] addresses shed MICA004 polypeptide (human) (UniProt Q29983). The assay is described as above. The source holds these as a separate data set.
For assay [12], the target named is shed MICA002 polypeptide (human) (UniProt Q29983). The description is as above. The source holds these as a separate data set.
Assay [13] addresses shed MICB005 polypeptide (human) (UniProt Q29980). The description is as above. This is another data set of the same source.
Assay [14] has as its target shed MICA008 polypeptide (human) (UniProt Q29983). The description is as above. The source holds these as a separate data set.
The target in assay [15] is shed MICA004 polypeptide (human) (UniProt Q29983). The assay is described as above. This is another data set of the same source.
In assay [16] the target is shed MICA002 polypeptide (human) (UniProt Q29983). The description is as above. The source holds these as a separate data set.
Assay [17] concerns the target shed MICB005 polypeptide (human) (UniProt Q29980). Described as above. This is another data set of the same source.
For assay [18], the target named is shed MICA008 polypeptide (human) (UniProt Q29983). The description is as above. This is another data set of the same source.
In assay [19] the target is shed MICA004 polypeptide (human) (UniProt Q29983). The description is as above. This is another data set of the same source.
Assay [20] deals with shed MICA002 polypeptide (human) (UniProt Q29983). The assay is described as above. The source holds these as a separate data set.
Assay [21] deals with shed MICB005 polypeptide (human) (UniProt Q29980). Described as above. This is another data set of the same source.
Assay [22] has as its target shed MICA008 polypeptide (human) (UniProt Q29983). The assay is described as above. The source holds these as a separate data set.
Assay [23] concerns the target shed MICA004 polypeptide (human) (UniProt Q29983). Put plainly: ELISA: antibody titrated on anti-hFc plate, shed MICA004 captured, detection NKG2D-His + anti-His-HRP. For orientation: An ELISA detects its analyte on a solid surface through an enzyme-linked reagent.
For assay [24], the target named is shed MICA002 polypeptide (human) (UniProt Q29983). The assay is described as follows: ELISA: antibody titrated on anti-hFc plate, shed MICA002 captured, detection NKG2D-His + anti-His-HRP.

B1: h36B3GS (antibody, V domains shown)
VH: QVQLVQSGAEVKKPGASVKVSCKASGYAFTKYNFYWVRQAPGQGLEWIGYIDPYFGGTVYNQKFKGKATLTVDKSTSTAYMELRSLRSDDTAVYYCATTDSYSLFTYWGQGTLVTVSS
VL: DIQMTQSPSSLSASVGDRVTITCRASQDISNYLNWYQQTPGKAVKLLIYYTSRLHSGVPSRFSGSGSGTDYTLTISSLQPEDIATYFCLQGNTLPFTFGQGTKLEIK
For the molecule B1, the EC50 in assay [1] was determined as 0.314 µg/mL; in assay [2] it was 0.295 µg/mL; in [3], 0.26 µg/mL; in assay [4], 0.32 µg/mL.

B2: h36B3GA (antibody, V domains shown)
VH: QVQLVQSGAEVKKPGASVKVSCKASGYAFTKYNFYWVRQAPGQGLEWIGYIDPYFGGTVYNQKFKGKATLTVDKSTSTAYMELRSLRSDDTAVYYCATTDAYSLFTYWGQGTLVTVSS
VL: DIQMTQSPSSLSASVGDRVTITCRASQDISNYLNWYQQTPGKAVKLLIYYTSRLHSGVPSRFSGSGSGTDYTLTISSLQPEDIATYFCLQGNTLPFTFGQGTKLEIK
For the molecule B2, the EC50 (read off the curve) in [5] was 0.5 µg/mL; in assay [6], 0.4 µg/mL.

B3: 1D5 (antibody, human IgG1, kappa, V domains shown)
VH: EIQLQQSGPELVKPGASVKVSCKASGYAFTSQNIYWVKQSHGKSLEWIGYIEPYNVVPMYNPKFKGKATLTVDKSSSSAYIHLNSLTSEDSAIYYCARSGSSNFDYWGQGTTLTVSS
VL: EIILTQSPTTMAASPGEKITITCSASSSISSHYLHWYQQKSGFSPKLLIYRTSNLASGVPARFSGSGSGTSYSLTIGTMEAEDVATYYCQQGSSLPLTFGAGTKVEIKR
Take B3: the EC50 in assay [7] turned out to be 0.035 µg/mL; in assay [8] it was 0.025 µg/mL; in assay [9], 0.043 µg/mL; in assay [10], 0.037 µg/mL; in [11], 0.018 µg/mL; in assay [12] it was 0.032 µg/mL. Besides, the EC50 in assay [13] stood at 0.035 µg/mL; in assay [14], 0.035 µg/mL; in [15], 0.02 µg/mL; in assay [16] it was 0.02 µg/mL; in assay [17], 0.02 µg/mL; in assay [18] it was 0.03 µg/mL. Besides, the EC50 in assay [19] was determined as 0.023 µg/mL; in [20] it was 0.019 µg/mL; in assay [21] it was 0.026 µg/mL; in assay [22] it was 0.024 µg/mL; in assay [23], 0.056 µg/mL; in assay [24], 0.071 µg/mL. The maxOD in assay [7] was 2.8; in assay [8] it was 4.5; in assay [9], 3.83; in [10] it was 1.67. The Max OD450 in assay [11] amounted to 1.94; in [12], 1.86; in [13], 1.54; in assay [14] it was 1.39; in assay [15] it was 2.76; in assay [16], 3.42. Also, the Max OD450 in assay [17] is 2.81; in [18] it was 0.41; in [19] it was 2.01; in assay [20] it was 1.93; in assay [21], 1.43; in assay [22] it was 1.26.
